In PMC4489214:

Molecular target: LRRTM2 expressed on K562 cells (mouse) (UniProt Q8BGA3)
Assay: cell adhesion assay; K562 'prey' cells (NRX1-alpha variant, beta-Gal, RFP) mixed with biotinylated K562 'bait' cells (LRRTM2 or NL3(A2), AP-GFP, BirA-ER) on neutravidin magnetic beads; 60 min at RT in DMEM without serum; bound cells read by beta-Gal activity

Chain of UniProt Q8BGA3 (Q8BGA3 34-515): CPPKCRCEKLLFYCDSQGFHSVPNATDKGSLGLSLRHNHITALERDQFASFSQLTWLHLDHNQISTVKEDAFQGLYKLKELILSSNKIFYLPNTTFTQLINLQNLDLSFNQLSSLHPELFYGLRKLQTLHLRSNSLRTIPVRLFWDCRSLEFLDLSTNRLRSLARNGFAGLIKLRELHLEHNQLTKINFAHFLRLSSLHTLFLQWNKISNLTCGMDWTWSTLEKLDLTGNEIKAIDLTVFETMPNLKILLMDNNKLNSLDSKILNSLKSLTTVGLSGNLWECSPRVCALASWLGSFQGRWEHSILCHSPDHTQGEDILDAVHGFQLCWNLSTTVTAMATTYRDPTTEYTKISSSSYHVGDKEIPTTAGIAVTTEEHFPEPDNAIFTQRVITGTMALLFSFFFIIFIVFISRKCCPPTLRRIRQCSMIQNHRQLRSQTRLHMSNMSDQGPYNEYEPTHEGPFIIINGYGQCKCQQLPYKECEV

Row | Substance | fold increase of adhesion against the AS6+ isoforms
1 | NRX1alpha lacking the insertions at AS3 and AS6, expressed on K562 cells (from UniProt Q9CS84 31-1514) (receptor) | 3 fold
2 | NRX1alpha with the insertion at AS3 and lacking the insertion at AS6, expressed on K562 cells (from UniProt Q9CS84 31-1514) (receptor) | 3 fold
